According to patent publication US20150011567:

Key:
[1] = test system: biotinylated H4-derived unphosphorylated peptide TVTAMDVVYALKRQGRT
[2] = test system: biotinylated human histone H2B derived peptide KRSRKESYSVYVYKVL
[3] = test system: purified human H2A recombinant protein (NEB)
[4] = test system: purified human H2B recombinant protein (NEB)
[5] = test system: purified human H3 recombinant protein (NEB)
[6] = target: purified human H4 recombinant protein (NEB) (UniProt P62805)

Sequence of recombinant GST-WEE1 protein (Invitrogen) (chain, as listed by the source): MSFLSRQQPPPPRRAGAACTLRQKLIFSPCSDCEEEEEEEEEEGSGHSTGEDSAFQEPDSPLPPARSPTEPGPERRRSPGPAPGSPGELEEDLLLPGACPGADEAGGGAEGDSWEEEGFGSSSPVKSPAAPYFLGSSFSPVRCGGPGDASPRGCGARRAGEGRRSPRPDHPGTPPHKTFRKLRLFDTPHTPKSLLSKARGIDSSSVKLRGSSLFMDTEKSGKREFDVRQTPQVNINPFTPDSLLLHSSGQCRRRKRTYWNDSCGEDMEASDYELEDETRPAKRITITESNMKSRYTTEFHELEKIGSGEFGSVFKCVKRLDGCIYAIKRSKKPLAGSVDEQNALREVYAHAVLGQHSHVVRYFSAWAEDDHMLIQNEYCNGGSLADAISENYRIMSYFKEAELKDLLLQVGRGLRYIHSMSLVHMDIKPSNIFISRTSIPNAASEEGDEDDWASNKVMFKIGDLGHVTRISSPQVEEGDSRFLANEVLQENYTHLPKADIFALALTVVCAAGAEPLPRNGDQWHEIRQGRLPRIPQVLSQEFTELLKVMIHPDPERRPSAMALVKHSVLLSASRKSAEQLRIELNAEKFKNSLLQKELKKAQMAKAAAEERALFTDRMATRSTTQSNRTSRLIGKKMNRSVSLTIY

| Substance | in vitro kinase assay on plate-bound peptide, ELISA with pY88-H4 antibodies [1] | Peptide Immunosandwich Assay (PIA), H2B Tyr37-phosphorylation read at 450 nm [2] | in vitro kinase assay, immunoblot with pTyr37-H2B antibody [3] | in vitro kinase assay, immunoblot with pTyr37-H2B antibody [4] | in vitro kinase assay, immunoblot with pTyr37-H2B antibody [5] | in vitro kinase assay, immunoblot with pTyr37-H2B antibody [6] |
| --- | --- | --- | --- | --- | --- | --- |
| purified WEE1 protein (Examples 5 and 7) | Incubation of H4 peptide with WEE1 and Ack1 protein resulted in robust H4 Tyr88-phosphorylation | Purified WEE1 exhibited robust H2B Tyr37-phosphorylation |  |  |  |  |
| recombinant GST-WEE1 protein (Invitrogen) |  |  | failed to phosphorylate other three core histones, H2A, H3 and H4 | When purified WEE1 and H2B were incubated, H2B was Tyr37-phosphorylated | failed to phosphorylate other three core histones, H2A, H3 and H4 | failed to phosphorylate other three core histones, H2A, H3 and H4 |
